The supplement of paper PMC12042874
± gives the uncertainty stated by the source.

Test: amyloid nucleation score (Sup35N fusion, yeast selection) (log enrichment); library NNK2; higher = more nucleation; inactive = no reads after selection
In short: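 The nucleation score, computed with DiMSum, is the log enrichment of output over input reads, centred on the mode score of non-aggregating sequences. Sequences with under 100 input reads were dropped. Reads were generated by Illumina sequencing of plasmid inserts from psi-negative yeast with Sup35N fused to peptides of 20 random codons, induced with 100 μM copper sulfate for 24 hours and grown 7 days at 30°C on medium lacking adenine and uracil.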

Substance | amyloid nucleation score
RFFFYGLGMFYIETFYLLWF | inactive
RFFGLAKMRMLVKCQ | 0.043 ± 0.65
RFFVYWFVFLCRLNGCVLWT | -0.689 ± 0.4
RFGLGINLLIGVRLLCLALL | 0.043 ± 1
RFGRSQVRAKCRVDDDRWIR | 4.63 ± 0.071
RFICSAPAVPILIICWS | -1.65 ± 0.76
RFLLVRSCQAISNRGNGLRE | 5.08 ± 0.042
RFLSYTSCLEMIVFCGRVQG | 0.207 ± 0.23
RFMVSRYFISGPIIVSC | 0.284 ± 1.1
RFPLGCKMSVTGPFHMTHHA | 1.29 ± 0.38
RFSYFFHVLMRGRNYVQATG | inactive
RFYRIDAKVAYQWAYQF | 3.94 ± 0.12
RGCGFRIDVGKRWRNRIKSV | inactive
RGCMEVWVLYQSNALSM | 4.18 ± 0.071
RGDHDCW | 0.77 ± 0.32
RGDSATLVGCNVVMGRRFSL | 4.32 ± 0.099
RGFNGSLR | 0.552 ± 0.4
RGFRGRFVFGRT | -0.183 ± 0.49
RGFWRVFGCRHIVATPFEVE | 8.675 ± 0.058
RGGSTPYYNWSAGDGWKKDK | 2.86 ± 0.065
RGHSALFTNFCGTMCGVVDG | 0.148 ± 1
RGINVGGWLSLGFTGAVHSL | 3.4 ± 0.12
RGKSKYSRLGWPGNLEHKGL | 0.388 ± 0.46

Substance | amyloid nucleation score
RGLLHFIFVITQYKGIYSNV | inactive
RGMVLS | -0.129 ± 1.1
RGSSALDE | 0.382 ± 0.35
RGTMVWTDCFMCLGLYKKVY | -0.896 ± 0.56
RGTNQSSVSMRGAL | 0.523 ± 0.36
RGTVVTGF | 1.3 ± 0.44
RGWCLDRPQYNVFRAMSRSL | 0.066 ± 1
RGYFPFYNR | -0.907 ± 0.65
RHLHYRRYKIAAKGLIVFMN | 3.95 ± 0.067
RHSCFICFNVLVICGLNLSL | 5.927 ± 0.037
RHYLLFGWIVSPKVELFSPS | 0.895 ± 0.81
RICVRCPSYYTMWLWCLRFL | inactive
RIFMWAYLAYCDNISEVRRR | -0.554 ± 1
RILFWSYA | -0.407 ± 0.48
RIMTPWIGRGRRAHIFLHLW | 1.06 ± 0.29
RINKGISGRGSD | 0.582 ± 0.57
RINMPTYLLNWFSCHNYRFS | 3.98 ± 0.093
RIQSSFFHCC | 7.825 ± 0.036
RIRASKPVFKAFLTPGSYLF | -1.87 ± 1
RIRHCGQFYSMHGKRRIATH | 1.17 ± 0.34
RISRFMPCSRS | 1.11 ± 0.52
RIVRQSVYQELFYFGQRGSL | 4.19 ± 0.072
RKFFSIVRFCA | inactive

Substance | amyloid nucleation score
RKGSTGRDISSNSYIVY | inactive
RKILVKMNYFMRHLMNCVTE | inactive
RKIMNGKV | -0.414 ± 0.64
RKLGYFLRLRKKATHGRLLV | 5.5 ± 0.067
RKLRVNWERCFHVSEAGLKV | 0.057 ± 1.1
RKNSLHTMWMGKMVCSCFKL | 5.69 ± 0.063
RKNSWDISHPAGTCNIRFIL | 0.339 ± 0.61
RKWLISHPFLRRRGLSSLVF | 0.99 ± 0.2
RLCAWEVNPARSKAGAV | 0.886 ± 0.57
RLCGV | -1.17 ± 0.55
RLCWLEGVIVYRIFGGKLGV | -1.33 ± 0.44
RLFLSSNST | -1.49 ± 0.54
RLFTRANCIHFRERKVRKIH | 0.078 ± 0.29
RLGFISRSNLVANDVGKIFL | inactive
RLHRTILHVSRTGQFGAHQC | 0.989 ± 0.35
RLKAPLPYDEIFQLFVIGEI | 0.698 ± 0.8
RLKELRQDIPVMPNRQL | 1.51 ± 0.3
RLLFSDCFLVFLPMGCFAFF | 3.69 ± 0.07
RLLLCLRLSY | 2.7 ± 0.12
RLLLLPTSLLYSKSWCYSLL | -0.622 ± 0.27
RLLNTAVLVANESNQNARDR | -0.245 ± 0.29
RLMVWSSL | 1.87 ± 0.38
RLRDRNDHVLRCSHYWIQDW | 0.956 ± 0.57
